Data taken from the nanobody polyreactivity screen of Harvey et al. (2022).

Experiment: yeast display, Sf9 membrane polyspecificity reagent, FACS + sequencing; frameworks hold sequencing errors
Outline: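 Genes from sorted yeast were amplified by colony PCR, read by MiSeq 2 × 250 sequencing and filtered on CDR length. These cells carried a synthetic nanobody library in Saccharomyces cerevisiae BJ5465 and were sorted by FACS into low and high (top ~1%) gates on anti-HA and streptavidin fluorescence. Polyreactivity is labelled according to the gate of origin.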

Sequence	polyreactivity (PSR sort gate)
QVQLVESGGGLVQAGGSLRLSCAASGIIFVINAMGWYRQAPGKERELVATITGSGTTNYADSVKGRFTISRDNAKNTVYLQMNSLKPEDTAVYYCARDDTEYARTGAYDYWGQGTQVTVSS	low polyreactivity
QVQLVESGGGLVQAGGSLRLSCAASGIIFVSYMGWYRQAPGKERELVAAIRWSGGRTYYADAVKGRFTISRDNAKNTVYLQMNSLKPEDTAVYYCNKRVYYSRDVTSRVGRYDFWGQGTQVTVSS	high polyreactivity
QVQLVESGGGLVQAGGSLRLSCAASGIIFWAYALGWYRQAPGKERELVAVISRGGSTNYADSVKGPFTISRDNAKNTVYLQMNSLKPEDTAVYYCAARYGWGQGTQVTVSS	high polyreactivity
QVQLVESGGGLVQAGGSLRLSCAASGIIFWRHVMGWYRQAPGKERELVATISTRGGNTYYADSVKGRFTISRDNAKNTVYLQMNSVKPEDTAVYYCAAGKNGYTYSRSYSYGYWGQGTQVTVSS	high polyreactivity
QVQLVESGGGLVQAGGSLRLSCAASGIIFWRYAMGWYRQAPGKERELVAAIRYRAGSTYYADSVKGRFTISRDNAKNTVYLQLNSLKPEDTAVYYCAAGWWTSPDRRGGDYWGQGTQVTVSS	high polyreactivity
QVQLVESGGGLVQAGGSLRLSCAASGIIFWVNAMGWYRQAHGKETELVAAITISGVSTYYADSVKGRFTISRDNAKNTVYLQMNSLKPEDTAVYYCAKDPTFSSSFAVSLGFDSWGQGTQVTVSS	low polyreactivity
QVQLVESGGGLVQAGGSLRLSCAASGIIFWWYAMGWYRQAPGKEMELVAAISGTGGSTYYADSVKGRFTISRDNAKNTVYLQMNSLKPEDTAFYYCAARGKSSSYYDYDYWGQGTQVTVSS	low polyreactivity
QVQLVESGGGLVQAGGSLRLSCAASGIIFWYYAMGWYRPAPGKERELVAAISSGGGTNYADSVKGRFTISRDNAKNTVYLQMNSLKPEDTAVYYCAVASGPELDYWGQGTQVTVSS	low polyreactivity
QVQLVESGGGLVQAGGSLRLSCAASGIIFWYYAMGWYRQAPGIERELVAAISQSGGRTYYADSVKGRFTISRDNAKKTVYLQMNSLKPEDTAVYYCAAEPYTGYGYWGQGTQVTVSS	high polyreactivity
QVQLVESGGGLVQAGGSLRLSCAASGIIFWYYAMGWYRQAPGKERELVAAISGSGGRTYYADSVKGRFTISRDNAKNTVYLQMNSLKPEDTAVYYCNALRAAFYHRARELDYWGQGTQVTVSS	high polyreactivity
QVQLVESGGGLVQAGGSLRLSCAASGIIFYAYAMGWYRQAPGKERELVARISRGGSTNYADSVKGRFTISRDNAKNTFYLQMNSLKPEDTAVYYCAAYYAYLRYGGLYEYWGQGTQVTVSS	high polyreactivity
QVQLVESGGGLVQAGGSLRLSCAASGIIFYDYAMGWYRQAPGKERELVAAIDTGDSTYYADSVKGRFTISRDNAKKTVDLQMNSLKPEDTAVYYCAADYIFYTYIFYWGQGTQVTVSS	high polyreactivity
QVQLVESGGGLVQAGGSLRLSCAASGIIFYDYAMGWYRQAPGKERELVAAISRSGGSTYYADSVKGRFTISRDNATNTVYLQMNSLKPEDTAVYYCNADEVVWGYNYWGQGTQVTVSS	low polyreactivity
QVQLVESGGGLVQAGGSLRLSCAASGIIFYDYAMGWYRQAPGKERELVAAITSSGGSTYYADSVKGRFTISRDNAKNTVYLQMNSLKPEDTAVYYCAARTRSYWSTTYYYWGQGTQVTVSS	high polyreactivity
QVQLVESGGGLVQAGGSLRLSCAASGIIFYDYVMGWYRQAPGKERELVTAISSNGGSTYYADSVKGRFTISRDNAKNTVYLQMNRLKPEDTAVYYCAAEGKSYPWPWYFDYWGQGTQVTVSS	high polyreactivity
QVQLVESGGGLVQAGGSLRLSCAASGIIFYEYAMGWYRQAPGKERELVATITSGGSTNYADSVKGRFTISRDNAKNTVYLQMNSLKPEDTAVYYCNADWWWGYGYWGQGTQVTVSS	low polyreactivity
QVQLVESGGGLVQAGGSLRLSCAASGIIFYEYAMGWYRQAPGKERELVAVITSGGTTNYADSVKGRFTISRDNAKNTVYLQMNSLKPEDTAVYYCAADVYWEFSPEYDYWGQGTQVTVSS	low polyreactivity
QVQLVESGGGLVQAGGSLRLSCAASGIIFYEYVMGWYRQAPGKERELVAAISRSGGSTYYADSVKGRFTISRDNAKNTVYLQMNSLKPEDTAVYYCAVDAYRYWWTTYVSDFDYWGQGTQVTVSS	high polyreactivity
QVQLVESGGGLVQAGGSLRLSCAASGIIFYFYTMGWYRQAPGKERELVAAISSSGGRTFYADSVKGRFTISRDNAKNTVYLQMNSLKPEDTAVYYCAAAHTREYYWGQGTQVTVSS	high polyreactivity
QVQLVESGGGLVQAGGSLRLSCAASGIIFYGKAMGWYRQAPGKERELVAAITWSGGSTYYADSVKGRFTISRDNAKNTVYLQMNRLKPEDTAVYYCAALSGAHEHFVEYDYWGQGTQVTVSS	low polyreactivity

Sequence	polyreactivity (PSR sort gate)
QVQLVESGGGLVQAGGSLRLSCAASGIIFYGNVMGWYRQAPGKERELVAGINSSGASTYYADSVKGRFTISRDNAKNTVYLQMNSLKPEDTAVYYCAARGPRVRLNSYYAGRYDYWGQGTQVTVSS	low polyreactivity
QVQLVESGGGLVQAGGSLRLSCAASGIIFYGYAMGWYRQAPGKERELVAAIRWRGGSTYYADSVKGRFTISRDNAKNTVYLQMNSLKPADTAVYFCAADQTRYTSVFSSTRYDYWGQGTQVTVSS	low polyreactivity
QVQLVESGGGLVQAGGSLRLSCAASGIIFYGYVMGWYRQAPGKERELVATITSSGGSTYYADSVKGRFTISRDNAKNTVYLQMNSLKPEDTGVYYCAADYYYGAWVRHDYWGQGTQVTLSS	low polyreactivity
QVQLVESGGGLVQAGGSLRLSCAASGIIFYHNAMGWYRQAPGKERELVASITEIGGSTYYADSVKGRFTISRDNAKNTVYLQMNSLKPEDTAVYYCAAGTLTSFSRYDYWGQGTQVTVSS	low polyreactivity
QVQLVESGGGLVQAGGSLRLSCAASGIIFYLNAMGWYRLAPGKERELVAAISSSDGTTYYADSVKGRFTISRDNAKNTVYLQMNSLKPEDTAGYYCAAGQDWGYLDYDWVSYLYDYWGQGTQVTVSS	low polyreactivity
QVQLVESGGGLVQAGGSLRLSCAASGIIFYLYAMGWYRQAPGKERELVAAITLSGSTTYYADSVKGRFTISRDNAKNTVYLQMNSLKPEDTAVYYCNADTPVRSDYWGQGTQVTVSS	low polyreactivity
QVQLVESGGGLVQAGGSLRLSCAASGIIFYLYTKGWYRQAPGKERELVAAITRGGSTYYADSVKGRFTISRDNAKKTVYLQMNSLKPEDTAVYYCAAKHGPGYRRWYDYWGQGTQVTVSS	high polyreactivity
QVQLVESGGGLVQAGGSLRLSCAASGIIFYRYAMGWYRQAPGKERELVAAISTRGGSTYYADSVKGRFTISRDNAKYTVYLHMNSLKPEDTAVYYCAAEWLRYLHDYWGQGTQVTVSS	high polyreactivity
QVQLVESGGGLVQAGGSLRLSCAASGIIFYRYAMGWYRQAPGKERELVAAITWRGGSPYYADSVKGRFTISRDNAKNTVYLQMNSLKPEDTAVYYCAAESYWTATYTFDYWGQGTQVTVSS	high polyreactivity
QVQLVESGGGLVQAGGSLRLSCAASGIIFYVNAMGWYRQAPGKERDLVAAITFGGDSTYYADSVKGRFTISRDNAMNTVSVQMNSLKPEDTAVYYCATDGDPAYPEMEYLGQGTQVTVSS	low polyreactivity
QVQLVESGGGLVQAGGSLRLSCAASGIIFYVNAMGWYRQAPGKERELVAVISRRGGSTNYADSVKGRFTISRDNAKNTVYLQMNSLKPEDTAVYYCAAGYRTAYRGSSYYYWGQGTQVTVSS	high polyreactivity
QVQLVESGGGLVQAGGSLRLSCAASGIIFYYNALGWYRQAPGKERELVAAIDDRGDSTYYADSVKGRFTISRDNAKNTVYLQMNSLKPEDTAVYYCAADRYVQLLGYFFEYDYWGQGTQVTVSS	low polyreactivity
QVQLVESGGGLVQAGGSLRLSCAASGIIFYYYAMGWYRQPPGKERELVAAISWSGDGTYYADSVKGRFTISRDNPKNTVYLQMNSLKPEDTAVYYCAALNDGFSGYDYLDEYTDYGYWGQGTQVTVSS	low polyreactivity
QVQLVESGGGLVQAGGSLRLSCAASGIIIGNNAMGWYRQAPGKERELVAPISRRGGSTYYADSVKGRFTISRDNAKNTVYLQMNSLKPEYTAVYYCAADIYRYNSYDYWGQGTQVTVSS	low polyreactivity
QVQLVESGGGLVQAGGSLRLSCAASGIIIGYYAMGWYRQAPGKERELVAAISSIGGSTYYADSVKGRFTISRDNAKNTVYLQMNSLKPEDTAVYYCAAKYYGRYYRYLGSSFDYWGQGTQVTVSS	high polyreactivity
QVQLVESGGGLVQAGGSLRLSCAASGIIINTYLMGWYRQAPGKERELVAAISRRGGSTYYADSVKGRFTISRDNAKITVYLQMNSLKPEDTAFYYCAADVLYQQAGTYYWGQGTQVNVSS	high polyreactivity
QVQLVESGGGLVQAGGSLRLSCAASGIIIRYYGMGWYRQAPGKERELVARIRWTGGSTYYADSVKGRFTISRDNAKNTVYLQMNSLKPEDTAVYYCAADIWQYSRIANYHPYDYWGQGTQVTVSS	low polyreactivity
QVQLVESGGGLVQAGGSLRLSCAASGIIISYYTMGWYRQAPGKERELVAAITGSGGSTYYADSVKGRFTISRDNAKNTVYLQMNSLKPEDTAVYYCAADPSLRQYAYFDYYYWGQGTQVTVSS	low polyreactivity
QVQLVESGGGLVQAGGSLRLSCAASGIILAFNAMGWYRQAPGKEREFVASISQGGSSTYYADSVKGRFTISRDYAKNTVYLQMNSLKPEVTAVYFCAARSSRVRSPYQRYYYWGQGTQVTVSS	high polyreactivity
QVQLVESGGGLVQAGGSLRLSCAASGIILDPNAMGWYRQAPGKEREMVAGITRSGVSTYYADSVKGRFTISRDNAKNTVYLQMNSLKPEDTAVYYCANDRIYGSKGEDDDYWGQGTQVSVSS	low polyreactivity
